Assay results: paper PMC3931707, “Distinct Structural Features of the Peroxide Response Regulator from Group A Streptococcus Drive DNA Binding”

T1: PerR WT (Streptococcus pyogenes (GAS) serotype …, UniProt Q9A1M6 1-155)
T1 sequence: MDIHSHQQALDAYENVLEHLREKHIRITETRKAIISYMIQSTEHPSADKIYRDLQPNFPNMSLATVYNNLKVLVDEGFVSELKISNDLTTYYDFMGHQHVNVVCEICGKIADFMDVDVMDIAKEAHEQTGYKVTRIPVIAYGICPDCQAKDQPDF

B1: dpr segment (-185 to -135) (dsDNA)
DNA 1: ACACTTAATTAGAATCATTATCGTTTTATATCTATATTCTACAATGATTAA
DNA 2: TTAATCATTGTAGAATATAGATATAAAACGATAATGATTCTAATTAAGTGT

Assays:
[1] = molecular target: peroxide response regulator (PerR) from Group A streptococcus, recombinant 6xHis-tagged, wild type (Streptococcus pyogenes (Group A streptococcus) serotype M1 strain A20); assay: SEC; Superdex 75 size exclusion chromatography of purified PerR against molecular weight markers; apparent molecular weight about 42 kDa for the wild type
PerR WT = molecular target: T1, PerR WT; assay: EMSA; EMSA: 20 mM Tris pH 8.0, 50 mM KCl, 5% glycerol, 50 ug/ml BSA, 15 min at 25 C; 6% native PAGE in Tris-borate, ethidium bromide; conditions: protein: recombinant; tags: C-terminal 6xHis (pET-21b NdeI/XhoI); chain copies: 2

| Molecule | stoichiometry N [1] | binding result (PerR WT) |
| --- | --- | --- |
| peroxide response regulator (PerR) from Group A streptococcus, recombinant 6xHis-tagged, wild type (natural protein) | 2 | – |
| B1 | – | binds |
